According to publication doi:10.1101/091256 (bioRxiv, 2016):

Biological target: T1, release factor RF2 (E. coli (K12 strain), UniProt P07012 1-365)
T1 sequence: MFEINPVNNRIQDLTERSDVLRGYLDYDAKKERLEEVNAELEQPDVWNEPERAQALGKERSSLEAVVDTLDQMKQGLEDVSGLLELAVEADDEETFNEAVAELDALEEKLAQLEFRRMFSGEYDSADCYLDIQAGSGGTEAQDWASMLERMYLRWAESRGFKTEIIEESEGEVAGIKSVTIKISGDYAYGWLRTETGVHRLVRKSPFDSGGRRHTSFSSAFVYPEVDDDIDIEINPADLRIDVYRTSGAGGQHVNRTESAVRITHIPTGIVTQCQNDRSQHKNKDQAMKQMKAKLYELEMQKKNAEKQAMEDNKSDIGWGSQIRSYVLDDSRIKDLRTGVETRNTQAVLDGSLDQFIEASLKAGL
Test: cryo-EM structure

binding result: binds
B1: ArfA (alternative rescue factor A) (natural protein, E. coli, UniProt P36675 1-60, looked up)
chain: MSRYQHTKGQIKDNAIEALLHDPLFRQRVEKNKKGKGSYMRKGKHGNRGNWEASGKKVNH
